# Residue numbers refer to the chain shown, from its start.
# B1: ovalbumin: molar equivalent ovalbumin control protein (Sigma) (protein, UniProt P01012 2-386, looked up)
# Ovalbumin: GSIGAASMEFCFDVFKELKVHHANENIFYCPIAIMSALAMVYLGAKDSTRTQINKVVRFDKLPGFGDSIEAQCGTSVNVHSSLRDILNQITKPNDVYSFSLASRLYAEERYPILPEYLQCVKELYRGGLEPINFQTAADQARELINSWVESQTNGIIRNVLQPSSVDSQTAMVLVNAIVFKGLWEKAFKDEDTQAMPFRVTEQESKPVQMMYQIGLFRVASMASEKMKILELPFASGTMSMLVLLPDEVSGLEQLESIINFEKLTEWTSSNVMEERKIKVYLPRMKMEEKYNLTSVLMAMGITDVFSSSANLSGISSAESLKISQAVHAAHAEINEAGREVVGSAEAGVDAASVSEEFRADHPFLFCIKHIATNAVLFFGRCVSP
# B2: ApiCCT1: the 140 amino acid apical domain of CCT1 (protein)
# chain: MVPGYALNCTVASQAMPKRIAGGNVKIACLDLNLQKARMAMGVQINIDDPEQLEQIRKREAGIVLERVKKIIDAGAQVVLTTKGIDDLCLKEFVEAKIMGVRRCKKEDLRRIARATGATLVSSMSNLEGEETFESSYLGLCDEVVQAKFSDDECILIKGTSKAAAAALEHHHHHH
# B3: C. elegans NAC: purified recombinant C. elegans nascent polypeptide-associated complex (protein)
# chain 1: MTGSTETRQKEVKEPQVDVSDDSDNEAVEQELTEEQRRVAEAAGLGDHIDKQAKQSRSEKKARKLFSKLGLKQVTGVSRVCIRKSKNILFVINKPDVFKSPGSDTYIIFGEAKIEDLTQHAQMSAIENLKPTREAPQLKTVEEDENEDVEEDSTGIEEKDIELVISQANTTRNKAIRALKEADNDIVNAIMSLTM
# chain 2: MDSKAIAERIKKLQAQQEHVRIGGKGTPRRKKKVIHKTAAADDKKLQSNLKKLSVTNIPGIEEVNMIKDDGTVIHFNNPKVQTSVPANTFSVTGSADNKQITEMLPGILNQLGPESLTHLKKLANNVTKLGPDGKGEDEDVPELVGDFDAASKNETKADEQ
# B4: RRK/AAA-NAC: NAC with mutation in the conserved ribosome-binding motif in the N-terminus of βNAC; ribosome-binding deficient (protein)
# chain 1: B3 chain 1
# chain 2: B3 chain 2 with R29A, R30A, K31A
# How the values were obtained:
# [1] = target: T1, mutant Huntingtin exon 1 (mHttQ51) (Homo sapiens, UniProt P42858, INS38QQQQQQQQQQQQQQQQQQQQQQQQQQQQQQQ); experiment: In vitro filter trap aggregation assay of mutant Huntingtin exon 1; type: biochemical; settings: for mHttQ51 aggregation: 5× molar excess, 3 μM mHttQ51, filter trap, SDS-insoluble aggregates
# T1 construct: mutant Huntingtin exon 1 containing a pathogenic stretch of 51 glutamines (mHttQ51); GST (N, cleaved yes); made in house; host or cells: E. coli Rosetta 2(DE3) pLysS
# T1 sequence (P42858 with tags, fused parts or gaps with the stated changes limits assumed): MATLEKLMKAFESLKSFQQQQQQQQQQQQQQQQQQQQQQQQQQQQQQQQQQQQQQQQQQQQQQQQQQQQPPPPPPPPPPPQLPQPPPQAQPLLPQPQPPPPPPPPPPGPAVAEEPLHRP
# Protocol: (§1) Mutant Huntingtin and PolyQ51 aggregation reactions were performed at concentration 3 μM of mHttQ51, 0.044 Units/μl acTEV protease (Invitrogen, Carlsbad, CA, USA), and respective concentrations of Ovalbumin (Sigma) or purified NAC chaperone variants. Aggregation was conducted in TEV reaction buffer (Invitrogen) and incubated at 30° C. AtxQ78 was buffer exchanged into TEV reaction buffer using 7K MWCO Zeba Spin Desalting Columns (Thermo Fisher) to initiate aggregation. AtxQ78 aggregation reactions were performed at 30 μM of Ataxin-3 in reaction buffer (20 mM sodium phosphate pH 7.5, 25 mM NaCl, 6 mM MgCl2, 2 mM DTT, 5% (v/v) glycerol) and incubated at 37° C. Samples at varied time-points were then taken and combined in a 1:1 ratio with a 4% (w/v) SDS, 100 mM DTT solution, boiled for 5 min at 95° C., and stored at −20° C. Samples were then filtered through a 0.22 μm cellulose acetate membrane (Whatman) and washed with 0.1% (w/v) SDS. Membrane was probed using an S-tag antibody (Abcam) for mHttQ51 and PolyQ51, and with a His-tag antibody (Abcam) for AtxQ78.
# [2] = target: T2, full-length Ataxin-3 (AtxQ78) (Homo sapiens, UniProt P54252, INS305QQQQQQQQQQQQQQQQQQQQQQQQQQQQQQQQQQQQQQQQQQQQQQQQQQQQQQQQQQQQQQQQ); experiment: Filter trap aggregation assay of AtxQ78; type: biochemical; settings: equimolar (1×) NAC, 37° C.
# T2 construct: full-length Ataxin-3 harboring a stretch of 78 glutamines (AtxQ78); made in house
# T2 sequence (P54252 with tags, fused parts or gaps with the stated changes): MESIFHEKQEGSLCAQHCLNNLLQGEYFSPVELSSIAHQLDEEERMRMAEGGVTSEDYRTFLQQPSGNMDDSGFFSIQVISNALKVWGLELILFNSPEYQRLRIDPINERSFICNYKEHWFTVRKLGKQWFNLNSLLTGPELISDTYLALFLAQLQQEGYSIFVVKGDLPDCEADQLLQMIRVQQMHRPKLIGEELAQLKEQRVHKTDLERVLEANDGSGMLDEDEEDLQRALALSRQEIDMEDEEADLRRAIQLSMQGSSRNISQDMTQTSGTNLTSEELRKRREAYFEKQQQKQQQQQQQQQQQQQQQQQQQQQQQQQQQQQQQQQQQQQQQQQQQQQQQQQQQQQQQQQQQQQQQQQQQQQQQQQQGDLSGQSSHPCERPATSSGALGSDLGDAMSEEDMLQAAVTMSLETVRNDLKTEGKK
# Protocol: as §1
# Aβ40 = target: T3, Aβ40 (Homo sapiens, UniProt P05067); experiment: Thioflavin T fluorescence assay of Aβ40 aggregation; type: biochemical; settings: equimolar NAC variant and Aβ40 (32 μM FIG. 4C; 18 μM FIG. 12C), 37° C., 20 h
# T3 construct: Aβ40 peptide was expressed and purified as described previously; made in house; host or cells: E. coli BL21 (DE3)
# Protocol: Lyophilized Aβ40 was resuspended at 320 μM in 20 mM sodium phosphate pH 7.4, 0.2 mM EDTA, 0.01% (w/v) sodium azide and stored on ice. The NAC proteins were diluted to 100 μM in storage buffer (20 mM sodium phosphate pH 7.5, 25 mM NaCl, 6 mM MgCl2, 2 mM β-mercaptoethanol, 5% (v/v) glycerol) and buffer exchanged into 20 mM sodium phosphate pH 7.4, 0.2 mM EDTA, 0.01% (w/v) sodium azide, 1× complete mini protease inhibitor, EDTA free (Roche) by means of ZebaSpin 7 kDa MWCO spin columns (Thermo Scientific). Samples were prepared that contained equimolar concentrations of Aβ40 and NAC variants. Thioflavin T was added to a final concentration of 10 μM. The samples were transferred to a 96 well half-area clear bottom microplate (Corning GmbH, Wiesbaden, Germany), with 95 μL of sample in each well. The fluorescence (excitation: 440 nm, emission: 480 nm) was measured using a BMG Omega plate reader (BMG Labtech) incubating samples at 37° C., quiescently.
# PolyQ35::YFP = PolyQ35::YFP aggregation in C. elegans overexpressing NAC (fluorescence microscopy, SDD-AGE); type: in vivo; settings: overexpressed in body wall muscle cells (myo-3 promoter), day 3 of adulthood, fluorescence microscopy
# Source text: NAC is a major ribosome-binding factor interacting broadly with nascent chains (del Alamo et al., 2011). However, its assumed chaperone function is poorly investigated. […] Although loss of NAC causes pleiotropic defects in C. elegans (Gamerdinger et al., 2015), this finding raises the possibility that NAC directly exerts a chaperone function on aggregation-prone proteins. In this case, overexpression of NAC should prevent aggregation of PolyQ proteins in vivo. Therefore, we used a C. elegans strain expressing 35 consecutive glutamine residues fused to YFP (PolyQ35::YFP) in body wall muscle cells. This PolyQ length is close to the aggregation threshold in C. elegans muscle cells, leading to progressive, age-dependent aggregation starting at day 2 of adulthood (Morley et al., 2002). We generated transgenic animals that overexpress FLAG-tagged α- and βNAC under the control of the muscle-specific myo-3 promoter. PolyQ aggregation was assessed at day 3 of adulthood by fluorescence microscopy as well as semi-denaturing detergent agarose gel electrophoresis (SDD-AGE), which detects high molecular weight oligomeric PolyQ species (Halfmann and Lindquist, 2008). […] This is evident by magnification of the head regions showing diffuse PolyQ35::YFP and less punctate PolyQ35::YFP structures when NAC was overexpressed (FIG. 1A, head region images). […] To directly test the potential chaperone function of NAC, we employed a peptide composed of 51 consecutive glutamines (PolyQ51) as a model substrate in a well-established in vitro aggregation assay. We initiated aggregation of PolyQ51 by cleaving a solubilizing GST tag with TEV protease and detected aggregates over time using a filter trap assay.
# Worms were cultured according to standard techniques with E. coli OP50 as food source (Brenner, 1974). Transgenic strains were generated using standard microinjection protocols (Mello and Fire, 1995). […]
# [3] = test system: PolyQ35::YFP C. elegans worms; experiment: Paralysis assay; type: in vivo; settings: overexpression; day 6 to 10 of adulthood
# Protocol: To analyze the percentage of paralyzed worms, 100 semi-synchronized (timed egg lay for 5 h) young adult worms of each strain were placed on a plate containing 150 μM 5-fluorodeoxyuridine. Screening of paralyzed worms was started at day 6 of adulthood.
molecule,measurement,setting,value
B1,mHttQ51 aggregation,[1],little effect
B2,polyQ aggregation of huntingtin exon1,[1]; system with purified components,specifically and efficiently inhibits polyQ aggregation of huntingtin exon1
B3,mHttQ51 aggregation,[1],to a lesser extent
same,AtxQ78 aggregation,[2],prevented AtxQ78 aggregation but was slightly less effective than the human isoform
B4,Aβ40 aggregation (ThT fluorescence),Aβ40,fully suppressed Aβ40 aggregation
same,mHttQ51 aggregation,[1],delayed mHttQ51 aggregation similar to wild-type NAC
same,PolyQ35::YFP aggregation,PolyQ35::YFP,suppressed PolyQ35::YFP aggregation similarly to WT-NAC
same,motility / age-associated paralysis of PolyQ35::YFP-expressing worms,[3],still improved motility during aging albeit less effective than WT-NAC
